Assay [1] concerns HaCaT. Nature of the assay: HaCaT proliferation, MTT assay. The format is cell-based. The following applies: Homo sapiens, 72 hours, unit nM. In general terms: Formazan colour is commonly taken as a measure of viable cells.
Method: HaCaT, a human epidermal keratinocyte line from The Second Military Medical University (SMMU), China, was cultured in DMEM containing 10% FBS.
HaCaT were seeded in 96-well plates at 4×10^4 cells/well overnight. Stausporine or test articles were then added into the culture and incubated at 37° C., 5% CO2 for 72 hours. After removal of the media, the cells in 96-well plates were exposed to 100 μL of MTT (0.5 mg/mL in DMEM containing 10% FBS per well and incubated for 3 hours at 37° C., 5% CO2. Subsequently, the supernatants were removed and 150 μL of DMSO were added to each well. The plate was incubated in the dark for 10 minutes and the absorbance at 492 nm was recorded immediately using Multiskan MK3microplate reader (Thermo Life Sciences, HK, China).
All IC50 values were determined by using Xlfit™ software (version 2.0) from ID
Background was defined in culture with cells treated with DMSO only and was subtracted for IC50 calculations.
The subject of assay [2] is ears of mice. Nature of the assay: Ear inflammation after intradermal injection of IL-22 (study 1, establishment of model). The format is in vivo, BABL/c mice. Here is the method: FIG. 3: Group and dosing for in vivo evaluation of extracts from Qingdai in IL-22 induced psoriasis model. Five studies were designed and outlined in study 1-5, respectively. In Study 1, 100 ng and 500 ng of IL-22 in 20 μL saline, i.d., were used for induction. In study 2-5, 500 ng of IL-22 in […], i.d., were used for induction.
FIG. 4: Figures illustrate ear inflammation after intradermal injection of IL-22. In the studies, ears of mice were injected intradermally and ear thickness was measured on days between injections.
BABL/c mice, male, body weight 19-22 g, purchased from Shanghai SLC AnimalCenter.
Intradermal injection of 20 μL PBS, either alone or containing 100 or 500 ng recombinant mouse IL-22 (eBiosience), was administered into the ears of anesthetized mice using a 30-gauge needle every other day for eleven days. Ear thicknesses were measured before injection on day 0 and thereafter on days without injections. Ear measurements were taken at the center of the ears using a digimatic micrometer caliper (Mitutoyo).
Results of ear thickness data were expressed as mean±S.E.M. AUC of ear swelling was calculated by the ear thickness data from day 0 to day 11, and analyzed by repeated-measured ANOVA methods with JMP® software. Cytokine protein and gene expression data were evaluated with a one-way ANOVA and followed by student's t-test for post-hoc analysis. […]

Take `CN[C@@H]1C[C@H]2O[C@@](C)([C@@H]1OC)n1c3ccccc3c3c4c(c5c6ccccc6n2c5c31)C(=O)NC4` [Staurosporine]: the IC50 – broadly, the concentration that inhibits the measured activity by half – in assay [1] is 3.18 nM. In other words, the single-digit nanomolar range.

B1: IL-22: Recombinant mouse IL-22, intradermal inducer of ear inflammation (protein, UniProt Q9JJY9 34-179, looked up)
Interleukin-22: LPVNTRCKLEVSNFQQPYIVNRTFMLAKEASLADNNTDVRLIGEKLFRGVSAKDQCYLMKQVLNFTLEDVLLPQSDRFQPYMQEVVPFLTKLSNQLSSCHISGDDQNIQKNVRRLKETVKKLGESGEIKAIGELDLLFMSLRNACV
On to B1, for which the “ear thickness (d 15)” value in assay [2] (study 1, IL-22 100 ng in 20 μL saline i.d., day 15) stood at 255.3 ± 15.1 μm; in assay [2] (study 1, IL-22 500 ng in 20 μL saline i.d., second value of the cell, day 15 as in the lines above), 296.3 ± 5.0 μm.

For the origin of these results see patent publication US10251926B2, “Extract from indigo naturalis and a process for preparing the same” (Galderma S.A., priority 2015, dated 2019).
